# Results: the RNAGym collection of RNA variant scans (doi:10.1093/molbev/msab373)
# B1: Azoarcus group I ribozyme (parent)
# chain: GUGCCUUGCGCCGGGAAACCACGCAAGGGAUGGUGUCAAAUUCGGCGAAACCUAAGCGCCCGCCCGGGCGUAUGGCAACGCCGAGCCAAGCUUCGGCGCCUGCGCCGAUGAAGGUGUAGAGACUAGACGGCACCCACCUAAGGCAAACGCUAUGGUGAAGGCAUAGUCCAGGGAGUGGCGAAAGUCACACAAACCGG
# Variants of: B1
# Assay: reverse-splicing fitness (ratio to wild type); higher = more active; in vitro selection; Mg2+ level not given
# Method in brief: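 An in vitro group I ribozyme library with randomized positions was T7-transcribed and gel-purified. In triplicate, 10 pmol RNA in EPPS pH 7.5 was reacted with 50 pmoles of a 30-nt RNA substrate for 1 h at 37 °C across several added MgCl2 levels (1–48 mM), then stopped with EDTA. Products were reverse transcribed from a substrate-complementary primer, PCR-amplified and sequenced (HiSeq 4000). Fitness is a variant's read proportion after selection over that before, normalised to wild type.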
row,Variant,reverse-splicing fitness
1,GUGCCUUGCGCCGGGAAACCACGCAAGGGAUGGUGUCAAAUUCGGCGAAACCUAAGCGCCCGCCCGGGCGUAUGGCAACGCUGAGCCAAGCUUCGGCGCCUGCGCCGAUGCAGGUGUAGCGACUAGACGGCACCCACCUAAGGCAAACGAUAUGGUGAAGGCAUAGUCUAGGGAGUGGCGAAAGUCACACAAACCGG [C82U A111C A120C C150A C169U],0.0128
2,GUGCCUUGCGCCGGGAAACCACGCAAGGGAUGGUGUCAAAUUCGGCGAAACCUAAGCGCCCGCCCGGGCGUAUGGCAACGCUGAGCCAAGCUUCGGCGCCUGCGCCGAUGCAGGUGUAGCGACUAGACGGCACCCACCUAAGGCAAACGAUAUGGUGAAGGCAUAGUCAAGGGAGUGGCGAAAGUCACACAAACCGG [C82U A111C A120C C150A C169A],0.00879
3,GUGCCUUGCGCCGGGAAACCACGCAAGGGAUGGUGUCAAAUUCGGCGAAACCUAAGCGCCCGCCCGGGCGUAUGGCAACGCUGAGCCAAGCUUCGGCGCCUGCGCCGAUGCAGGUGUAGCGACUAGACGGCACCCACCUAAGGCAAACGAUAUGGUGAAGGCAUAGUCGAGGGAGUGGCGAAAGUCACACAAACCGG [C82U A111C A120C C150A C169G],0.00864
4,GUGCCUUGCGCCGGGAAACCACGCAAGGGAUGGUGUCAAAUUCGGCGAAACCUAAGCGCCCGCCCGGGCGUAUGGCAACGCUGAGCCAAGCUUCGGCGCCUGCGCCGAUGCAGGUGUAGCGACUAGACGGCACCCACCUAAGGCAAACGAUAUGGUGAAGGCAUAGUCCAGGGAGAGGCGAAAGUCACACAAACCGG [C82U A111C A120C C150A U176A],0.0109
5,GUGCCUUGCGCCGGGAAACCACGCAAGGGAUGGUGUCAAAUUCGGCGAAACCUAAGCGCCCGCCCGGGCGUAUGGCAACGCUGAGCCAAGCUUCGGCGCCUGCGCCGAUGCAGGUGUAGCGACUAGACGGCACCCACCUAAGGCAAACGAUAUGGUGAAGGCAUAGUCCAGGGAGCGGCGAAAGUCACACAAACCGG [C82U A111C A120C C150A U176C],0.022
6,GUGCCUUGCGCCGGGAAACCACGCAAGGGAUGGUGUCAAAUUCGGCGAAACCUAAGCGCCCGCCCGGGCGUAUGGCAACGCUGAGCCAAGCUUCGGCGCCUGCGCCGAUGCAGGUGUAGCGACUAGACGGCACCCACCUAAGGCAAACGAUAUGGUGAAGGCAUAGUCCAGGGAGGGGCGAAAGUCACACAAACCGG [C82U A111C A120C C150A U176G],0.00688
7,GUGCCUUGCGCCGGGAAACCACGCAAGGGAUGGUGUCAAAUUCGGCGAAACCUAAGCGCCCGCCCGGGCGUAUGGCAACGCUGAGCCAAGCUUCGGCGCCUGCGCCGAUGCAGGUGUAGCGACUAGACGGCACCCACCUAAGGCAAACGGUAUGGUGAAGGCAUAGUCCAGGGAGUGGCGAAAGUCACACAAACCGG [C82U A111C A120C C150G],0.00785
8,GUGCCUUGCGCCGGGAAACCACGCAAGGGAUGGUGUCAAAUUCGGCGAAACCUAAGCGCCCGCCCGGGCGUAUGGCAACGCUGAGCCAAGCUUCGGCGCCUGCGCCGAUGCAGGUGUAGCGACUAGACGGCACCCACCUAAGGCAAACGAUAUGGUGAAGGCAUAGUCCAGGGAGUGGCGAAAGUCACACAAACCGG [C82U A111C A120C C150A],0.00985
9,GUGCCUUGCGCCGGGAAACCACGCAAGGGAUGGUGUCAAAUUCGGCGAAACCUAAGCGCCCGCCCGGGCGUAUGGCAACGCUGAGCCAAGCUUCGGCGCCUGCGCCGAUGCAGGUGUAGCGACUAGACGGCACCCACCUAAGGCAAACGGUAUGGUGAAGGCAUAGUCGAGGGAGUGGCGAAAGUCACACAAACCGG [C82U A111C A120C C150G C169G],0.00626
10,GUGCCUUGCGCCGGGAAACCACGCAAGGGAUGGUGUCAAAUUCGGCGAAACCUAAGCGCCCGCCCGGGCGUAUGGCAACGCUGAGCCAAGCUUCGGCGCCUGCGCCGAUGCAGGUGUAGCGACUAGACGGCACCCACCUAAGGCAAACGGUAUGGUGAAGGCAUAGUCAAGGGAGUGGCGAAAGUCACACAAACCGG [C82U A111C A120C C150G C169A],0.00879
11,GUGCCUUGCGCCGGGAAACCACGCAAGGGAUGGUGUCAAAUUCGGCGAAACCUAAGCGCCCGCCCGGGCGUAUGGCAACGCUGAGCCAAGCUUCGGCGCCUGCGCCGAUGCAGGUGUAGCGACUAGACGGCACCCACCUAAGGCAAACGGUAUGGUGAAGGCAUAGUCUAGGGAGUGGCGAAAGUCACACAAACCGG [C82U A111C A120C C150G C169U],0.00884
12,GUGCCUUGCGCCGGGAAACCACGCAAGGGAUGGUGUCAAAUUCGGCGAAACCUAAGCGCCCGCCCGGGCGUAUGGCAACGCUGAGCCAAGCUUCGGCGCCUGCGCCGAUGCAGGUGUAGCGACUAGACGGCACCCACCUAAGGCAAACGGUAUGGUGAAGGCAUAGUCUAGGGAGAGGCGAAAGUCACACAAACCGG [C82U A111C A120C C150G C169U U176A],0.00808
13,GUGCCUUGCGCCGGGAAACCACGCAAGGGAUGGUGUCAAAUUCGGCGAAACCUAAGCGCCCGCCCGGGCGUAUGGCAACGCUGAGCCAAGCUUCGGCGCCUGCGCCGAUGCAGGUGUAGCGACUAGACGGCACCCACCUAAGGCAAACGGUAUGGUGAAGGCAUAGUCUAGGGAGCGGCGAAAGUCACACAAACCGG [C82U A111C A120C C150G C169U U176C],0.0134
14,GUGCCUUGCGCCGGGAAACCACGCAAGGGAUGGUGUCAAAUUCGGCGAAACCUAAGCGCCCGCCCGGGCGUAUGGCAACGCUGAGCCAAGCUUCGGCGCCUGCGCCGAUGCAGGUGUAGCGACUAGACGGCACCCACCUAAGGCUAACGCUAUGGUGAAGGCAUAGUCCAGGGAGCGGCGAAAGUCACACAAACCGG [C82U A111C A120C A145U U176C],0.0181
15,GUGCCUUGCGCCGGGAAACCACGCAAGGGAUGGUGUCAAAUUCGGCGAAACCUAAGCGCCCGCCCGGGCGUAUGGCAACGCUGAGCCAAGCUUCGGCGCCUGCGCCGAUGCAGGUGUAGCGACUAGACGGCACCCACCUAAGGCUAACGCUAUGGUGAAGGCAUAGUCCAGGGAGGGGCGAAAGUCACACAAACCGG [C82U A111C A120C A145U U176G],0.00547
